This is an account of results in publication PMC7581431, “Feedback control of Wnt signaling based on ultrastable histidine cluster co-aggregation between Naked/NKD and Axin” (eLife, 2020).

One series concerns the target T1, Lip-DVL2-PDZ (human, UniProt O14641 285-373).
T1 construct: PDZ domain of human DVL2, residues 285-373; also called DVL2 PDZ domain; wt DVL2 PDZ domain; source: E. coli BL21DE3 pRare2, purified (NiNTA, SEC)
T1 sequence (looked up): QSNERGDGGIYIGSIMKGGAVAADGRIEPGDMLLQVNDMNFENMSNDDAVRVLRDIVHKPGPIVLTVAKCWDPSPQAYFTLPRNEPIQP
Put plainly: ITC; MicroCal iTC200, 15 mM Tris-HCl, 150 mM NaCl, pH 7.4; Lip-DVL2-PDZ or Lip-DVL2-PDZ-V334E (696 μM) injected into 17.2 μM RFP-NKD-EF. Particulars: both partners purified.

Series [1] concerns the molecule itself. In words: SEC-MALS; purified proteins and preformed complexes, Superdex-200 10/300, 2 mg/ml, 15 mM TrisHCl, 150 mM NaCl, pH 7.4.

B1: RFP-NKD1-EF (domain or fragment, human, UniProt Q969G9 110-190, looked up)
chain: EPCPGSKKQLKFEELQCDVSMEEDSRQEWTFTLYDFDNNGKVTREDITSLLHTIYEVVDSSVNHSPTSSKMLRVKLTVAPD
notes: EF-hand of human NKD1, residues 110-190; Dimer by SEC-MALS (expected RFP-NKD1-EF dimer, 71.8 kDa); also called RFP-NKD-EF; NKD1 EF-hand; source: E. coli BL21DE3 pRare2, purified (NiNTA, SEC)
B1 yielded an equilibrium dissociation constant (Kd) with Lip-DVL2-PDZ of 3.2 ± 0.2 µM. Also, the “stoichiometry N” value in series [1] is 2.
